{"source": "patent US10272135B2", "about": "“Apolipoprotein O and fragments thereof for inducing apoptosis in a cancerous cell” (INSERM (INSTITUT NATIONAL DE LA SANTÉ ET DE LA RECHERCHE …, priority 2014, dated 2019)", "key": {"[1]": {"test_system": "cytochrome C oxidase", "test": "Cytochrome C oxidase activity in cardiac myoblasts", "type": "cell-based", "conditions": "ApoO cells vs control", "excerpt": "After ethical committee approval, all patients in this study gave written consent for sample collection and molecular analysis prior to inclusion. Patients were carefully selected by physicians from the Department of Cardiology, Toulouse University Hospital, prior to coronary by-pass surgery. Bioinformatics. Microarray expression data from human heart samples were downloaded from the GEO repository (GSE1145). This series consisted of 107 myocardial samples collected from patients undergoing cardiac transplantation whose failure arises from different etiologies (e.g. idiopathic dilated cardiomyopathy, ischemic cardiomyopathy, valvular cardiomyopathy, and hypertrophic cardiomyopathy) and from “normal” organ donors whose hearts cannot be used for transplants. Arrays were intensity normalized and hierarchical clustering (average group linkage, Pearson correlation, threshold r=0.8) was applied to identify groups of co-expressed genes. […] All ApoO sequences within the expression vectors were verified by DNA double strand sequencing using ABI PRISM®BigDye™ Terminator version 3.1 Ready reaction cycle sequencing kit (Life Technologies SAS, Villebon sur Yvette) and loaded on an ABI 3130XL DNA sequencing instrument (Life Technologies SAS, Villebon sur Yvette). […]"}, "[2]": {"test_system": "glioblastoma cells", "test": "Basal oxygen consumption in glioblastoma cells", "type": "cell-based", "conditions": "cells which express ApoO vs cells treated with shApoO (FIG. 14)", "excerpt": "Further, the inventors decided to investigate the effect of transforming gliobastoma cells so that they express ApoO. For this purpose, glioblastoma cells were transformed with an adeno-associated virus 9 comprising a polynucleotide encoding ApoO.\nThe inventors compared the oxygen consumption after treating glioblastoma cells with a short hairpin RNA (shApoO) silencing the expression of ApoO."}}}
{"molecule": "ApoO: 198-amino acid apolipoprotein, SEQ ID NO: 1; tested by overexpression from expression vectors or transgene (protein, listed as Homo sapiens) MFKVIQRSVGPASLSLLTFKVYAAPKKDSPPKNSVKVDELSLYSVPEGQSKYVEEARSQLEESISQLRHYCEPYTTWCQETYSQTKPKMQSLVQWGLDSYDYLQNAPPGFFPRLGVIGFAGLIGLLLARGSKIKKLVYPPGFMGLAASLYYPQQAIVFAQVSGERLYDWGLRGYIVIEDLWKENFQKPGNVKNSPGTK", "values": [{"measurement": "cytochrome C oxidase activity", "setting": "[1]", "value": "increase"}, {"measurement": "oxygen consumption", "setting": "[2]", "value": "more important"}]}
